Results: the supplement of paper PMC10201428
± gives the standard deviation of the averaged measurements.

Columns and labels:
[1] = tested on: VchCAST RNA-guided transposition machinery (E. coli BL21(DE3) host, lacZ target); assay: relative integration efficiency (T-RL orientation) vs wild-type transposon end (log2 (normalized fold change)); transposon end mutated: right end (5 bp flank + 75 bp right end); higher = more efficient transposition
Procedure, shortened: (§1)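 In E. coli BL21(DE3), a T7-driven effector plasmid was paired with a pUC57 mini-transposon donor containing 1549 left-end or 1849 right-end barcoded transposon variants. Cells grew on plates with 0.1 mM IPTG at 37°C for 18 h. Relative integration efficiency was derived from Illumina reads of genomic integration junctions against input plasmids, as a log-transformed output/input barcode fold change normalised to reference barcodes.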

[2] = tested on: VchCAST RNA-guided transposition machinery (E. coli BL21(DE3) host, lacZ target); assay: relative integration efficiency (T-LR orientation) vs wild-type transposon end (log2 (normalized fold change)); transposon end mutated: right end (5 bp flank + 75 bp right end); higher = more efficient transposition
Procedure, shortened: as §1

| Sequence | relative integration efficiency (log2) [1] | relative integration efficiency (log2) [2] |
| --- | --- | --- |
| ACATTTGTGGATACAACCATAAAATGATAATTACACCCATAAATGGATCATTATCACCCCCAATTTAACTATAACGCTCTGATCATAGTCAGACCAACATTGCTACGACCCGTATTCGCACCGACAC | -1.28 ± 0.28 | 1.36 ± 0.19 |
| ACATTTGTGGATACAACCATAAAATGATAATTACACCCATAAATGGATTATTATCACACCCAATTTAACTATAACGCTCTGATCATAGTCAGACCAACATTGCTACGACCCGTATTCGCACCGACAC | -1.72 ± 0.3 | 1.2 ± 0.22 |
| ACATTTGTGGATACAACCATAAAATGATAATTACACCCATAAATTCATAATTATCACACCCAATTTAACTATAACGCTCTGATCATAGTCAGACCAACATTGCTACGACCCGTATTCGCACCGACAC | -1.9 ± 0.49 | 0.877 ± 0.27 |
| ACATTTGTGGATACAACCATAAAATGATAATTACACCCATAAATTCATAATTATCACCCCCAATTTAACTATAACGCTCTGATCATAGTCAGACCAACATTGCTACGACCCGTATTCGCACCGACAC | -1.64 ± 0.37 | 1.27 ± 0.13 |
| ACATTTGTGGATACAACCATAAAATGATAATTACACCCATAAATTCATCATTATCACACCCAATTTAACTATAACGCTCTGATCATAGTCAGACCAACATTGCTACGACCCGTATTCGCACCGACAC | -2.03 ± 0.49 | 1.48 ± 0.12 |
| ACATTTGTGGATACAACCATAAAATGATAATTACACCCATAAATTCATCATTATCACCCCCAATTTAACTATAACGCTCTGATCATAGTCAGACCAACATTGCTACGACCCGTATTCGCACCGACAC | -1.88 ± 0.43 | 1.385 ± 0.0021 |
| ACATTTGTGGATACAACCATAAAATGATAATTACACCCATAAATTCATTATTATCACACCCAATTTAACTATAACGCTCTGATCATAGTCAGACCAACATTGCTACGACCCGTATTCGCACCGACAC | -2.59 ± 0.53 | 0.908 ± 0.36 |
| ACATTTGTGGATACAACCATAAAATGATAATTACACCCATAAATTGATAATTATCACCCCCAATTTAACTATAACGCTCTGATCATAGTCAGACCAACATTGCTACGACCCGTATTCGCACCGACAC | -0.606 ± 0.13 | 2.44 ± 0.065 |
| ACATTTGTGGATACAACCATAAAATGATAATTACACCCATAAATTGATCATTATCACACCCAATTTAACTATAACGCTCTGATCATAGTCAGACCAACATTGCTACGACCCGTATTCGCACCGACAC | -1.46 ± 0.31 | 1.89 ± 0.19 |
| ACATTTGTGGATACAACCATAAAATGATAATTACACCCATAAATTGATCATTATCACCCCCAATTTAACTATAACGCTCTGATCATAGTCAGACCAACATTGCTACGACCCGTATTCGCACCGACAC | -1.27 ± 0.17 | 1.99 ± 0.056 |
| ACATTTGTGGATACAACCATAAAATGATAATTACACCCATAAATTTATAATTATCACACCCAATTTAACTATAACGCTCTGATCATAGTCAGACCAACATTGCTACGACCCGTATTCGCACCGACAC | -1.09 ± 0.41 | 1.8 ± 0.36 |
| ACATTTGTGGATACAACCATAAAATGATAATTACACCCATAAATTTATTATTATCACACCCAATTTAACTATAACGCTCTGATCATAGTCAGACCAACATTGCTACGACCCGTATTCGCACCGACAC | -2.14 ± 0.55 | 1.47 ± 0.11 |
| ACATTTGTGGATACAACCATAAAATGATAATTACCACCCATAAATTGATAATTATCACACCCATTTAACTATAACGCTCTGATCATAGTCAGACCAACATTGCTACGACCCGTATTCGCACCGACAC | -1.11 ± 0.24 | 1.54 ± 0.083 |
| ACATTTGTGGATACAACCATAAAATGATAATTACCACCCATACATTGATAATTATCACACCCATTTAACTATAACGCTCTGATCATAGTCAGACCAACATTGCTACGACCCGTATTCGCACCGACAC | -2.53 ± 0.19 | -0.296 ± 0.095 |
| ACATTTGTGGATACAACCATAAAATGATAATTACCACCCCTAAATTGATAATTATCACACCCATTTAACTATAACGCTCTGATCATAGTCAGACCAACATTGCTACGACCCGTATTCGCACCGACAC | -2.781 ± 0.006 | -0.51 ± 0.037 |
| ACATTTGTGGATACAACCATAAAATGATAATTACCACCCCTACATTGATAATTATCACACCCATTTAACTATAACGCTCTGATCATAGTCAGACCAACATTGCTACGACCCGTATTCGCACCGACAC | -3.07 ± 0.21 | -0.503 ± 0.055 |

| Sequence | relative integration efficiency (log2) [1] | relative integration efficiency (log2) [2] |
| --- | --- | --- |
| ACATTTGTGGATACAACCATAAAATGATAATTCACCCATAAATTGATAATTATCACACCCCAATTTAACTATAACGCTCTGATCATAGTCAGACCAACATTGCTACGACCCGTATTCGCACCGACAC | -1.92 ± 0.17 | 1.23 ± 0.028 |
| ACATTTGTGGATACAACCATAAAATGATAATTCACCCATCAATTGATAATTATCACACCCCAATTTAACTATAACGCTCTGATCATAGTCAGACCAACATTGCTACGACCCGTATTCGCACCGACAC | -2.89 ± 0.38 | 0.328 ± 0.26 |
| ACATTTGTGGATACAACCCTAAAATGATAATTACACCCATAAATGGATAATTATCACACCCAATTTAACTATAACGCTCTGATCATAGTCAGACCAACATTGCTACGACCCGTATTCGCACCGACAC | -3.64 ± 0.39 | -0.593 ± 0.47 |
| ACATTTGTGGATACAACCCTAAAATGATAATTACACCCATAAATGGATAATTATCACCCCCAATTTAACTATAACGCTCTGATCATAGTCAGACCAACATTGCTACGACCCGTATTCGCACCGACAC | -3.8 ± 0.4 | -1.16 ± 0.27 |
| ACATTTGTGGATACAACCCTAAAATGATAATTACACCCATAAATGGATCATTATCACACCCAATTTAACTATAACGCTCTGATCATAGTCAGACCAACATTGCTACGACCCGTATTCGCACCGACAC | -3.94 ± 0.38 | -1.6 ± 0.071 |
| ACATTTGTGGATACAACCCTAAAATGATAATTACACCCATAAATGGATCATTATCACCCCCAATTTAACTATAACGCTCTGATCATAGTCAGACCAACATTGCTACGACCCGTATTCGCACCGACAC | -4.36 ± 0.35 | -1.88 ± 0.26 |
| ACATTTGTGGATACAACCCTAAAATGATAATTACACCCATAAATTCATAATTATCACACCCAATTTAACTATAACGCTCTGATCATAGTCAGACCAACATTGCTACGACCCGTATTCGCACCGACAC | -5.07 ± 0.49 | -2.97 ± 0.11 |
| ACATTTGTGGATACAACCCTAAAATGATAATTACACCCATAAATTCATAATTATCACCCCCAATTTAACTATAACGCTCTGATCATAGTCAGACCAACATTGCTACGACCCGTATTCGCACCGACAC | -4.88 ± 0.16 | -2.64 ± 0.13 |
| ACATTTGTGGATACAACCCTAAAATGATAATTACACCCATAAATTCATCATTATCACACCCAATTTAACTATAACGCTCTGATCATAGTCAGACCAACATTGCTACGACCCGTATTCGCACCGACAC | -4.92 ± 0.15 | -1.67 ± 0.21 |
| ACATTTGTGGATACAACCCTAAAATGATAATTACACCCATAAATTCATCATTATCACCCCCAATTTAACTATAACGCTCTGATCATAGTCAGACCAACATTGCTACGACCCGTATTCGCACCGACAC | -4.53 ± 0.011 | -1.47 ± 0.4 |
| ACATTTGTGGATACAACCCTAAAATGATAATTACACCCATAAATTGATAATTATCACACCCAATTTAACTATAACGCTCTGATCATAGTCAGACCAACATTGCTACGACCCGTATTCGCACCGACAC | -1.73 ± 0.26 | 1.32 ± 0.36 |
| ACATTTGTGGATACAACCCTAAAATGATAATTACACCCATAAATTGATAATTATCACCCCCAATTTAACTATAACGCTCTGATCATAGTCAGACCAACATTGCTACGACCCGTATTCGCACCGACAC | -2.2 ± 0.29 | 0.686 ± 0.29 |
| ACATTTGTGGATACAACCCTAAAATGATAATTACACCCATAAATTGATCATTATCACACCCAATTTAACTATAACGCTCTGATCATAGTCAGACCAACATTGCTACGACCCGTATTCGCACCGACAC | -3.19 ± 0.51 | 0.117 ± 0.091 |
| ACATTTGTGGATACAACCCTAAAATGATAATTACACCCATAAATTGATCATTATCACCCCCAATTTAACTATAACGCTCTGATCATAGTCAGACCAACATTGCTACGACCCGTATTCGCACCGACAC | -2.87 ± 0.27 | 0.316 ± 0.5 |
| ACATTTGTGGATCCAACCATAAAATGATAATTACACCCATAAATGGATAATTATCACACCCAATTTAACTATAACGCTCTGATCATAGTCAGACCAACATTGCTACGACCCGTATTCGCACCGACAC | -1.38 ± 0.18 | 1.18 ± 0.021 |
| ACATTTGTGGATCCAACCATAAAATGATAATTACACCCATAAATGGATCATTATCACACCCAATTTAACTATAACGCTCTGATCATAGTCAGACCAACATTGCTACGACCCGTATTCGCACCGACAC | -1.79 ± 0.39 | 0.845 ± 0.06 |
